The text below walks through data of the supplement of paper PMC10567573.

The labels stand for the following.
B1: CCND1 (parent)
chain: PEAEENKQIIRKHAQTFVALCATD
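Also: lentivirally expressed fusions sorted by FACS into six bins by GFP to DsRed ratio, PSI derived from sequencing read proportions per bin multiplied by bin number.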

In this data set the parent is B1. The data set is described as follows: protein stability index of a GFP-peptide fusion (GPS, HEK-293T) (PSI 1-6); higher = more stable. The settings on record: c terminus: a fixed tail appended.
PEAEENKQIIRHHAQTFVALCATD: the protein stability index is 3.47.
Consider PEAEENKQIIRTHAQTFVALCATD, for which the protein stability index is 3.06.
The figure for PEAEENKQIIRQHAQTFVALCATD is 3.9; for PEAEENKQIIRFHAQTFVALCATD it is 2.51.
As for PEAEENKQIIRGHAQTFVALCATD, the protein stability index was 3.65.
For PEAEENKQIIRWHAQTFVALCATD, the protein stability index was 2.34.
On to PEAEENKQIIRSHAQTFVALCATD, for which the protein stability index amounted to 2.29.
The figure for PEAEENKQIIRIHAQTFVALCATD is 2.39; for PLAEENKQIIRKHAQTFVALCATD it is 2.08; for PHAEENKQIIRKHAQTFVALCATD it is 2.34.
For PFAEENKQIIRKHAQTFVALCATD, the protein stability index came to 2.14.
Regarding PCAEENKQIIRKHAQTFVALCATD, the protein stability index worked out at 2.13.
In the case of PPAEENKQIIRKHAQTFVALCATD, the protein stability index stood at 2.83.
For PAAEENKQIIRKHAQTFVALCATD, the protein stability index came out at 2.54.
The figure for PYAEENKQIIRKHAQTFVALCATD is 2.69; for PEAEENKQIIRKHAQTFVALCKTD it is 3.66; for PEAEENKQIIRKHAQTFVALCLTD it is 2.72.
Consider PEAEENKQIIRKHAQTFVALCFTD, for which the protein stability index is 2.63.
The figure for PEAEENKQIIRKHAQTFVALCHTD is 3.38; for PEAEENKQGIRKHAQTFVALCATD it is 3.27; for PEAEENKQTIRKHAQTFVALCATD it is 2.18.
Take PEAEENKQDIRKHAQTFVALCATD: the protein stability index turned out to be 3.9.
PEAEENKQEIRKHAQTFVALCATD: the protein stability index worked out at 3.89.
In the case of PEAEENKQWIRKHAQTFVALCATD, the protein stability index is 2.73.
With PEAEENKQKIRKHAQTFVALCATD, the protein stability index amounted to 2.45.
For PEAEENKQNIRKHAQTFVALCATD, the protein stability index worked out at 3.56.
As for PEAEENKQMIRKHAQTFVALCATD, the protein stability index was 3.53.
Turning to PEAEENKQIIRKHYQTFVALCATD, the protein stability index is 2.44.
PEAEENKQIIRKHVQTFVALCATD: the protein stability index amounted to 2.3.
The figure for PEAEENKQIIRKHGQTFVALCATD is 3.71.
PEAEENKQIIRKHSQTFVALCATD: the protein stability index is 2.96.
As for PEAEENKQIIRKHWQTFVALCATD, the protein stability index is 1.94.
Take PEAEENKQIARKHAQTFVALCATD: the protein stability index was 2.79.
The figure for PEAEENKQIDRKHAQTFVALCATD is 3.14; for PEAEENKQIRRKHAQTFVALCATD it is 3.19; for PEAEENKQIPRKHAQTFVALCATD it is 3.14.
Turning to PEAEENKQIWRKHAQTFVALCATD, the protein stability index turned out to be 3.22.
As to PEAEENKQIVRKHAQTFVALCATD, the protein stability index was 3.39.
The figure for PEAEENKQIQRKHAQTFVALCATD is 2.81.
As to PEAEENKQILRKHAQTFVALCATD, the protein stability index was found to be 3.48.
As for PEAEENKQIIAKHAQTFVALCATD, the protein stability index came to 3.58.
PEAEENKQIINKHAQTFVALCATD: the protein stability index is 3.59.
PEAEENKQIIFKHAQTFVALCATD: the protein stability index came to 2.64.
Regarding PEAEENKQIIYKHAQTFVALCATD, the protein stability index was found to be 2.88.
As for PEAEENKQIILKHAQTFVALCATD, the protein stability index stood at 3.25.
Take PEAEENKQIICKHAQTFVALCATD: the protein stability index is 2.94.
For PEAEENKQIIGKHAQTFVALCATD, the protein stability index came to 3.16.
Take PEAEENKQIIRKHADTFVALCATD: the protein stability index was determined as 3.66.
On to PEAEENKQIIRKHAMTFVALCATD, for which the protein stability index came out at 2.59.
As for PEAEENKQIIRKHACTFVALCATD, the protein stability index worked out at 2.84.
For the variant PEAEENKQIIRKHARTFVALCATD, the protein stability index came out at 2.32.
Consider PEAEENKQIIRKHATTFVALCATD, for which the protein stability index was 3.18.
For PEAEENKQIIRKHALTFVALCATD, the protein stability index amounted to 2.49.
Take PEAEEWKQIIRKHAQTFVALCATD: the protein stability index turned out to be 2.42.
For PEAEEDKQIIRKHAQTFVALCATD, the protein stability index worked out at 2.79.
Consider PEAEEMKQIIRKHAQTFVALCATD, for which the protein stability index worked out at 2.39.
Turning to PEAEELKQIIRKHAQTFVALCATD, the protein stability index stood at 1.88.
The figure for PEAEETKQIIRKHAQTFVALCATD is 2.
PEAEEHKQIIRKHAQTFVALCATD: the protein stability index came to 3.04.
As for PEAEESKQIIRKHAQTFVALCATD, the figure is 2.12; as for PEAEEPKQIIRKHAQTFVALCATD, 2.12.
With PEATENKQIIRKHAQTFVALCATD, the protein stability index is 2.1.
The figure for PEAFENKQIIRKHAQTFVALCATD is 1.92; for PEAVENKQIIRKHAQTFVALCATD it is 2.38.
Consider PEAPENKQIIRKHAQTFVALCATD, for which the protein stability index came out at 3.27.
For the variant PEADENKQIIRKHAQTFVALCATD, the protein stability index was determined as 2.64.
As for PEAEENKGIIRKHAQTFVALCATD, the figure is 2.85; as for PEAEENKVIIRKHAQTFVALCATD, 2.07; as for PEAEENKLIIRKHAQTFVALCATD, 2.45.
Consider PEAEENKTIIRKHAQTFVALCATD, for which the protein stability index is 1.7.
As for PEAEENKIIIRKHAQTFVALCATD, the figure is 2.19; as for PEAEENKAIIRKHAQTFVALCATD, 2.77; as for PEAEENKMIIRKHAQTFVALCATD, 2.85.
The figure for PEAEENKCIIRKHAQTFVALCATD is 2.24.
Take PEAEENKHIIRKHAQTFVALCATD: the protein stability index stood at 3.22.
Regarding PEAEENKSIIRKHAQTFVALCATD, the protein stability index was 2.58.
PEHEENKQIIRKHAQTFVALCATD: the protein stability index was determined as 2.02.
As to PEFEENKQIIRKHAQTFVALCATD, the protein stability index came out at 2.71.
In the case of PETEENKQIIRKHAQTFVALCATD, the protein stability index was 2.15.
As to PEWEENKQIIRKHAQTFVALCATD, the protein stability index is 2.85.
PEPEENKQIIRKHAQTFVALCATD: the protein stability index worked out at 2.43.
Regarding PELEENKQIIRKHAQTFVALCATD, the protein stability index was found to be 2.89.
Consider PEYEENKQIIRKHAQTFVALCATD, for which the protein stability index turned out to be 2.81.
As for PEGEENKQIIRKHAQTFVALCATD, the protein stability index came out at 2.8.
Turning to PECEENKQIIRKHAQTFVALCATD, the protein stability index is 2.31.
As for PEEEENKQIIRKHAQTFVALCATD, the protein stability index amounted to 3.02.
Regarding PEDEENKQIIRKHAQTFVALCATD, the protein stability index was 3.27.
Take PEAEENKQIIRKHAQTFVALCACD: the protein stability index came out at 2.64.
For the variant PEAEENKQIIRKHAQTFVALCALD, the protein stability index is 2.35.
For the variant PEAEENKQIIRKHAQTFVALCARD, the protein stability index came out at 2.48.
For the variant PEAEENKQIIRKHAQTFVALCAVD, the protein stability index came out at 2.87.
Turning to PEAEENKQIIRKHAQTFVALCASD, the protein stability index was determined as 2.48.
The figure for PEAEENKQIIRKHAQTFVALCAKD is 2.92; for PEAEENKQIIRKHAQTFVALCAFD it is 1.75.
